Assays:
Test in all cases: SPR; Biacore 3000, CM5 chip; rhTLR2, rhTLR4/MD2 and rhTLR4 amine-coupled (4.0, 4.7, 4.0 kRU); Wnt5a or Wnt3a injected at 25-100 nM for 2 min at 30 ul/min in HBS-P (10 mM HEPES, 0.15 M NaCl, 0.005% P20, pH 7.4) with ZnCl2 and CaCl2; Req from a 1:1 fit plotted against concentration and fit to a one-site hyperbola (steady-state KD)
Details in all cases: both partners purified
rhTLR4 = target: T1, rhTLR4 (human, UniProt O00206 24-631)
T1 construct: toll-like receptor 4, recombinant human protein from R&D Systems; No catalogue number or construct limits are printed; also called rhTLR4-his; source: bought: R&D Systems

rhTLR4/MD2 = target: T2, rhTLR4/MD2 (human, UniProt O00206 24-631; Q9Y6Y9 19-160)
T2 construct: toll-like receptor 4 in the recombinant human TLR4/MD2 complex from R&D Systems; MD2 (lymphocyte antigen 96) in the recombinant human TLR4/MD2 complex from R&D Systems; Bought as a preformed complex; No catalogue number, tags or construct limits are printed; source: bought: R&D Systems

rhTLR2 = target: T3, rhTLR2 (human, UniProt O60603 21-588)
T3 construct: toll-like receptor 2, recombinant human protein from R&D Systems; No catalogue number, tags or construct limits are printed; source: bought: R&D Systems
T3 sequence (O60603 21-588): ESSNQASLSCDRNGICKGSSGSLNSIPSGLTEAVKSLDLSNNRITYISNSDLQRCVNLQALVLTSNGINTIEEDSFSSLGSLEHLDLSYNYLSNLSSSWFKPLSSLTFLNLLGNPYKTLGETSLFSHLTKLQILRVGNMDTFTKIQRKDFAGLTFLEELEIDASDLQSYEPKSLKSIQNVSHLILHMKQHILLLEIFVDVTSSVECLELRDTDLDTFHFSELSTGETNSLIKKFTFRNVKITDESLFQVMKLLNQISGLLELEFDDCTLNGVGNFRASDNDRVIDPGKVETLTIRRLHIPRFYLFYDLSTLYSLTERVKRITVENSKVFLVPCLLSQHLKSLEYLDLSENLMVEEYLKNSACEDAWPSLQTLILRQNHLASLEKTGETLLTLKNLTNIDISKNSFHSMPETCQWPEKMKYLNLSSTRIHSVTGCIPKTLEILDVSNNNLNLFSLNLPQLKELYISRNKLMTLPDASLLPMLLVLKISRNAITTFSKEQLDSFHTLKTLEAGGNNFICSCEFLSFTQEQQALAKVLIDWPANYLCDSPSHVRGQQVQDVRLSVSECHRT

T1 sequence (O00206 24-631): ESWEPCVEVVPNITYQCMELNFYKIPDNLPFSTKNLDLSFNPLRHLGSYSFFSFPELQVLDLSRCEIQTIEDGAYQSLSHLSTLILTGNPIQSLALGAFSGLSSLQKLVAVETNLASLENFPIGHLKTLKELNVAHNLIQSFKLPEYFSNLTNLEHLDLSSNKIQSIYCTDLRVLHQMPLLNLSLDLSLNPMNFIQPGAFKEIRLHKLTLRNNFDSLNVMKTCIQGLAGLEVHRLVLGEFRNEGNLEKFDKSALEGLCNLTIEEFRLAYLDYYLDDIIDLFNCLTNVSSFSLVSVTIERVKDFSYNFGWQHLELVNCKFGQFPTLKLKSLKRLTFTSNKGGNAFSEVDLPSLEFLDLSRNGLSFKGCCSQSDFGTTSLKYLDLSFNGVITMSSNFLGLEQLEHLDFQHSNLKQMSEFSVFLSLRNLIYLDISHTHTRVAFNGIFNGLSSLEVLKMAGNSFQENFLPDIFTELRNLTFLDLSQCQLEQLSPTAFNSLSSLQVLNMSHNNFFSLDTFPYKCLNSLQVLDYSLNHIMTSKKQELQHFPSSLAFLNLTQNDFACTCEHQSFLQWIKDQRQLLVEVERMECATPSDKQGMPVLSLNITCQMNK
T2 sequence (O00206 24-631, chain 1 of 2): as the sequence (O00206 24-631) above
T2 sequence (Q9Y6Y9 19-160, chain 2 of 2): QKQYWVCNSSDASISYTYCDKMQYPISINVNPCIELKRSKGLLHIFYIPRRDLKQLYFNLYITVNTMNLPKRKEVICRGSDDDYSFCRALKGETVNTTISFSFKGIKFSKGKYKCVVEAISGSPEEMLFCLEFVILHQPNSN

Kd (rhTLR4): 44.5 nM
Kd (rhTLR4/MD2): 35.5 nM
Kd (rhTLR2): 26.5 nM
B1: recombinant human/mouse (rh/m)Wnt5a (ligand, UniProt P41221 62-380, looked up)
chain: IIGAQPLCSQLAGLSQGQKKLCHLYQDHMQYIGEGAKTGIKECQYQFRHRRWNCSTVDNTSVFGRVMQIGSRETAFTYAVSAAGVVNAMSRACREGELSTCGCSRAARPKDLPRDWLWGGCGDNIDYGYRFAKEFVDARERERIHAKGSYESARILMNLHNNEAGRRTVYNLADVACKCHGVSGSCSLKTCWLQLADFRKVGDALKEKYDSAAAMRLNSRGKLVQVNSRFNSPTTQDLVYIDPSPDYCVRNESTGSLGTQGRLCNKTSEGMDGCELMCCGRGYDQFKTVQTERCHCKFHWCCYVKCKKCTEIVDQFVCK
notes: Wnt5a, recombinant human/mouse protein from R&D Systems, molecular weight 38,000; Lyophilized from PBS, EDTA and CHAPS; No catalogue number is printed; also called rWnt5a; source: bought: R&D Systems

Reference: PMC6509336, “Wnt5a is a TLR2/4-ligand that induces tolerance in human myeloid cells” (Communications Biology, 2019)
